B1: target 1 insA 3' of 22,insC 3' of 5 (mixed)
RNA 1: CACCCGUGCAAAAAUGCAGGGGUCUAAAACUGAGCGGAUAACCUCUCUAUGG
RNA 2: GGGAAUGGAUCCACAUCUACGAAUUCGUACACAUAGAGAGGUUAUCCGCCUCACCGAGAUCGGAAGAGCACACGU
B2: target 1 G5U,G12U (mixed)
RNA 1: CACCCGUGCAAAAAUGCAGGGGUCUAAAACUGAGCGGAUAACCUCUCUAUGG
RNA 2: GGGAAUGGAUCCACAUCUACGAAUUCGUACCAUAGAGAGUUUAUCCUCUCACCGAGAUCGGAAGAGCACACGU
B3: target 1 insG 3' of 18,insU 3' of 5 (mixed)
RNA 1: CACCCGUGCAAAAAUGCAGGGGUCUAAAACUGAGCGGAUAACCUCUCUAUGG
RNA 2: GGGAAUGGAUCCACAUCUACGAAUUCGUACCAUAGGAGAGGUUAUCCGUCUCACCGAGAUCGGAAGAGCACACGU
B4: target 1 complement block 4-12 (mixed)
RNA 1: CACCCGUGCAAAAAUGCAGGGGUCUAAAACUGAGCGGAUAACCUCUCUAUGG
RNA 2: GGGAAUGGAUCCACAUCUACGAAUUCGUACCAUAGAGAGCAAUAGGCGUCACCGAGAUCGGAAGAGCACACGU
B5: target 1 C7U,U8C (mixed)
RNA 1: CACCCGUGCAAAAAUGCAGGGGUCUAAAACUGAGCGGAUAACCUCUCUAUGG
RNA 2: GGGAAUGGAUCCACAUCUACGAAUUCGUACCAUAGAGAGGUUACUCGCUCACCGAGAUCGGAAGAGCACACGU
B6: target 1 insG 3' of 22,insC 3' of 22 (mixed)
RNA 1: CACCCGUGCAAAAAUGCAGGGGUCUAAAACUGAGCGGAUAACCUCUCUAUGG
RNA 2: GGGAAUGGAUCCACAUCUACGAAUUCGUACGCCAUAGAGAGGUUAUCCGCUCACCGAGAUCGGAAGAGCACACGU
B7: target 1 complement block 9-11 (mixed)
RNA 1: CACCCGUGCAAAAAUGCAGGGGUCUAAAACUGAGCGGAUAACCUCUCUAUGG
RNA 2: GGGAAUGGAUCCACAUCUACGAAUUCGUACCAUAGAGAGGAAUUCCGCUCACCGAGAUCGGAAGAGCACACGU
B8: target 1 complement block 1-11 (mixed)
RNA 1: CACCCGUGCAAAAAUGCAGGGGUCUAAAACUGAGCGGAUAACCUCUCUAUGG
RNA 2: GGGAAUGGAUCCACAUCUACGAAUUCGUACCAUAGAGAGGAAUAGGCGAGUCCGAGAUCGGAAGAGCACACGU
B9: target 1 insA 3' of 6,insU 3' of 5 (mixed)
RNA 1: CACCCGUGCAAAAAUGCAGGGGUCUAAAACUGAGCGGAUAACCUCUCUAUGG
RNA 2: GGGAAUGGAUCCACAUCUACGAAUUCGUACCAUAGAGAGGUUAUCCAGUCUCACCGAGAUCGGAAGAGCACACGU
B10: target 1 U8C,G15U (mixed)
RNA 1: CACCCGUGCAAAAAUGCAGGGGUCUAAAACUGAGCGGAUAACCUCUCUAUGG
RNA 2: GGGAAUGGAUCCACAUCUACGAAUUCGUACCAUAGAUAGGUUACCCGCUCACCGAGAUCGGAAGAGCACACGU
B11: target 1 insA 3' of 17,insU 3' of 6 (mixed)
RNA 1: CACCCGUGCAAAAAUGCAGGGGUCUAAAACUGAGCGGAUAACCUCUCUAUGG
RNA 2: GGGAAUGGAUCCACAUCUACGAAUUCGUACCAUAGAAGAGGUUAUCCUGCUCACCGAGAUCGGAAGAGCACACGU
B12: target 1 insG 3' of 20,insC 3' of 20 (mixed)
RNA 1: CACCCGUGCAAAAAUGCAGGGGUCUAAAACUGAGCGGAUAACCUCUCUAUGG
RNA 2: GGGAAUGGAUCCACAUCUACGAAUUCGUACCAGCUAGAGAGGUUAUCCGCUCACCGAGAUCGGAAGAGCACACGU
B13: target 1 insA 3' of 7,insC 3' of 1 (mixed)
RNA 1: CACCCGUGCAAAAAUGCAGGGGUCUAAAACUGAGCGGAUAACCUCUCUAUGG
RNA 2: GGGAAUGGAUCCACAUCUACGAAUUCGUACCAUAGAGAGGUUAUCACGCUCACCCGAGAUCGGAAGAGCACACGU
B14: target 1 insC 3' of 8,insA 3' of 7 (mixed)
RNA 1: CACCCGUGCAAAAAUGCAGGGGUCUAAAACUGAGCGGAUAACCUCUCUAUGG
RNA 2: GGGAAUGGAUCCACAUCUACGAAUUCGUACCAUAGAGAGGUUAUCCACGCUCACCGAGAUCGGAAGAGCACACGU
B15: target 1 insC 3' of 18,insC 3' of 13 (mixed)
RNA 1: CACCCGUGCAAAAAUGCAGGGGUCUAAAACUGAGCGGAUAACCUCUCUAUGG
RNA 2: GGGAAUGGAUCCACAUCUACGAAUUCGUACCAUACGAGAGCGUUAUCCGCUCACCGAGAUCGGAAGAGCACACGU
B16: target 1 del11,del15 (mixed)
RNA 1: CACCCGUGCAAAAAUGCAGGGGUCUAAAACUGAGCGGAUAACCUCUCUAUGG
RNA 2: GGGAAUGGAUCCACAUCUACGAAUUCGUACCAUAGAAGGUAUCCGCUCACCGAGAUCGGAAGAGCACACGU
B17: target 1 insA 3' of 15,insA 3' of 15 (mixed)
RNA 1: CACCCGUGCAAAAAUGCAGGGGUCUAAAACUGAGCGGAUAACCUCUCUAUGG
RNA 2: GGGAAUGGAUCCACAUCUACGAAUUCGUACCAUAGAGAAAGGUUAUCCGCUCACCGAGAUCGGAAGAGCACACGU
B18: target 1 insU 3' of 20,insU 3' of 2 (mixed)
RNA 1: CACCCGUGCAAAAAUGCAGGGGUCUAAAACUGAGCGGAUAACCUCUCUAUGG
RNA 2: GGGAAUGGAUCCACAUCUACGAAUUCGUACCAUUAGAGAGGUUAUCCGCUCUACCGAGAUCGGAAGAGCACACGU
B19: target 1 C6U,A9G (mixed)
RNA 1: CACCCGUGCAAAAAUGCAGGGGUCUAAAACUGAGCGGAUAACCUCUCUAUGG
RNA 2: GGGAAUGGAUCCACAUCUACGAAUUCGUACCAUAGAGAGGUUGUCUGCUCACCGAGAUCGGAAGAGCACACGU
B20: target 1 complement block 2-11 (mixed)
RNA 1: CACCCGUGCAAAAAUGCAGGGGUCUAAAACUGAGCGGAUAACCUCUCUAUGG
RNA 2: GGGAAUGGAUCCACAUCUACGAAUUCGUACCAUAGAGAGGAAUAGGCGAGACCGAGAUCGGAAGAGCACACGU
B21: target 1 insA 3' of 10,insU 3' of 6 (mixed)
RNA 1: CACCCGUGCAAAAAUGCAGGGGUCUAAAACUGAGCGGAUAACCUCUCUAUGG
RNA 2: GGGAAUGGAUCCACAUCUACGAAUUCGUACCAUAGAGAGGUUAAUCCUGCUCACCGAGAUCGGAAGAGCACACGU
B22: target 1 insU 3' of 1,insU 3' of 1 (mixed)
RNA 1: CACCCGUGCAAAAAUGCAGGGGUCUAAAACUGAGCGGAUAACCUCUCUAUGG
RNA 2: GGGAAUGGAUCCACAUCUACGAAUUCGUACCAUAGAGAGGUUAUCCGCUCAUUCCGAGAUCGGAAGAGCACACGU
B23: target 1 insU 3' of 18,insU 3' of 2 (mixed)
RNA 1: CACCCGUGCAAAAAUGCAGGGGUCUAAAACUGAGCGGAUAACCUCUCUAUGG
RNA 2: GGGAAUGGAUCCACAUCUACGAAUUCGUACCAUAUGAGAGGUUAUCCGCUCUACCGAGAUCGGAAGAGCACACGU
B24: target 1 G5C,A20C (mixed)
RNA 1: CACCCGUGCAAAAAUGCAGGGGUCUAAAACUGAGCGGAUAACCUCUCUAUGG
RNA 2: GGGAAUGGAUCCACAUCUACGAAUUCGUACCCUAGAGAGGUUAUCCCCUCACCGAGAUCGGAAGAGCACACGU
B25: target 1 insG 3' of 19,insA 3' of 12 (mixed)
RNA 1: CACCCGUGCAAAAAUGCAGGGGUCUAAAACUGAGCGGAUAACCUCUCUAUGG
RNA 2: GGGAAUGGAUCCACAUCUACGAAUUCGUACCAUGAGAGAGGAUUAUCCGCUCACCGAGAUCGGAAGAGCACACGU
B26: target 1 insC 3' of 19,insA 3' of 6 (mixed)
RNA 1: CACCCGUGCAAAAAUGCAGGGGUCUAAAACUGAGCGGAUAACCUCUCUAUGG
RNA 2: GGGAAUGGAUCCACAUCUACGAAUUCGUACCAUCAGAGAGGUUAUCCAGCUCACCGAGAUCGGAAGAGCACACGU
B27: target 1 insC 3' of 22,insC 3' of 11 (mixed)
RNA 1: CACCCGUGCAAAAAUGCAGGGGUCUAAAACUGAGCGGAUAACCUCUCUAUGG
RNA 2: GGGAAUGGAUCCACAUCUACGAAUUCGUACCCAUAGAGAGGUCUAUCCGCUCACCGAGAUCGGAAGAGCACACGU

In PMC10786891, “Massively parallel profiling of RNA-targeting CRISPR-Cas13d” one finds Kd data, which are given here for 27 molecules.

Usually Kd stands for the constant that tells how readily two partners part at equilibrium. Lower therefore signals tighter binding.

The target in this series is T1, EsCas13d, nuclease-dead (Eubacterium siraeum, UniProt B0MS50, R295A;H300A;R849A;H854A).
T1 sequence: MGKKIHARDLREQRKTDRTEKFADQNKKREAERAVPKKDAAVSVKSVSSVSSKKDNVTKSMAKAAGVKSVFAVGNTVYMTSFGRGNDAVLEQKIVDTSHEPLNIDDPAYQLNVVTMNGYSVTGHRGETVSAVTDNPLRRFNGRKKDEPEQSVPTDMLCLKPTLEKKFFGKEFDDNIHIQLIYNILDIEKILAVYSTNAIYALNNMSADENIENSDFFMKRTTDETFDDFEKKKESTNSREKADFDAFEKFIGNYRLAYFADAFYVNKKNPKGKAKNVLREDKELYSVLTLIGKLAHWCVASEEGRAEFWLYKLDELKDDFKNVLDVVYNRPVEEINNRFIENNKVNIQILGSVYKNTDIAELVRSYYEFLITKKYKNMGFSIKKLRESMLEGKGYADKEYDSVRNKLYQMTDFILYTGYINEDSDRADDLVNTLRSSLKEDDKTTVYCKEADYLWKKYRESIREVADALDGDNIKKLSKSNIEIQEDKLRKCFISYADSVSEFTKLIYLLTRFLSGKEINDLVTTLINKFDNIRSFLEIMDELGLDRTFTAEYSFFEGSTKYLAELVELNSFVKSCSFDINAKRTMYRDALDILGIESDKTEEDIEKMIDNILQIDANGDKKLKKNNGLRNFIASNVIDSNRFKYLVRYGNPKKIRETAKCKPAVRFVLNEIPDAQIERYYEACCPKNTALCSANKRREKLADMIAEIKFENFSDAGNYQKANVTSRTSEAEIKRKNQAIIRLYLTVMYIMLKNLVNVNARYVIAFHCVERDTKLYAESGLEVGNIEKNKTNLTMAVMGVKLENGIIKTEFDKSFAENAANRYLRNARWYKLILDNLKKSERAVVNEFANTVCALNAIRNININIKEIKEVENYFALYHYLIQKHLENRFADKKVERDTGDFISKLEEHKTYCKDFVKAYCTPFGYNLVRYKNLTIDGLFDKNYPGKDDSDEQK
The series is described as follows: crRNA (strand 1, pre-loaded); Mg2+; 40 mM Tris-HCl pH 7.5, 150 mM NaCl, 6 mM MgCl2, 1 mM DTT, 0.1% Tween-20, 0.2 mg/ml BSA; 25 C; 10 min per concentration, then washed. Conditions: tags: His6-TwinStrep-SUMO cleaved; N-terminal SNAP kept (SNAP-Surface 488); label: 3' end held by stalled T7 RNA polymerase.
B1 yielded a Kd of 0.0277 ± 0.0035 µM.
On to B2, for which binding was characterised by a dissociation constant (Kd) of 0.041 ± 0.007 µM.
Under B3 stands 0.065 ± 0.011 µM.
Under B4 stands 0.0196 ± 0.0013 µM; under B5, 0.0087 ± 0.0005 µM.
Turning to B6, binding was characterised by a dissociation constant (Kd) of 0.0091 ± 0.0004 µM.
B7 came in with a Kd of 0.0229 ± 0.0015 µM.
For B8, the Kd is 0.0133 ± 0.0005 µM.
For B9 the value was 0.041 ± 0.005 µM.
The molecule B10 had a Kd of 0.0346 ± 0.0025 µM.
For B11 the value was 0.0145 ± 0.0008 µM; for B12, 0.05 ± 0.007 µM.
Take B13: the Kd worked out at 0.0058 ± 0.0004 µM. This Kd is about 8.6-fold lower than that of the molecule before.
As for B14, the affinity, expressed as Kd, was 0.015 ± 0.0006 µM.
Under B15 stands 0.049 ± 0.006 µM.
For B16 the value was 0.035 ± 0.005 µM.
Regarding B17, the Kd was 0.0061 ± 0.0005 µM.
Molecule B18 came in with a Kd of 0.0163 ± 0.0016 µM.
B19 displayed a dissociation constant Kd of 0.0142 ± 0.0009 µM.
For B20 the value was 0.0123 ± 0.00033 µM; for B21, 0.0139 ± 0.0005 µM.
In turn, B22 yielded a Kd of 0.0113 ± 0.0009 µM. This Kd and that of the molecule before are within 1.5-fold of each other.
For B23 the value was 0.0258 ± 0.0024 µM; for B24, 0.047 ± 0.007 µM; for B25, ~0.08 µM.
Molecule B26 came in with a Kd of 0.0382 ± 0.0022 µM.
The molecule B27 had a Kd of 0.05 ± 0.006 µM.
